How the values were obtained:
[1] = target: the molecule itself; assay: SEC-MALS; size exclusion chromatography with in-line MiniDAWN TREOS light scattering and refractive index detection; 50 mM HEPES pH 7.5, 150 mM KCl, 1 mM DTT or TCEP; with and without GSH, S-lactoyl-GSH or N-ethylsuccinimido-S-glutathione and NAD+ or NADH (1 mM)
[2] = target: the molecule itself; assay: native gel or EMSA; blue native PAGE (Novex 4-16% BisTris) of membranes solubilized with 1.5% dodecylmaltoside, without KefF; western blot with anti-His6; factor 1.8 for true mass:mobility-based mass

Protein	stoichiometry N [1]	stoichiometry N [2]
KefC-CTD:KefF fusion protein (complex, E. coli, synthetic flexible 12-residue linker with a thrombin motif that is not cleaved under the conditions used; KefF, ancillary subunit of the E. coli KefC system, full length; pET-28-derived vector; tag removed with thrombin overnight at 4 °C; also called KefC-CTD/KefF complex; fusion complex; source: E. coli BL21(DE3), purified (Ni-NTA with imidazole gradient, Superdex 200 gel filtration); not shown: …) RVIIAGFGRFGQITGRLLLSSGVKMVVLDHDPDHIETLRKFGMKVFYGDATRMDLLESAGAAKAEVLINAIDDPQTNLQLTEMVKEHFPHLQIIARARDVDHYIRLRQAGVEKPERETFEGALKTGRLALESLGLGPYEARERADVFRRFNIQMVEEMAMVENDTKARAAVYKRTSAMLSEIITEDREHLSLIQRHGWQGTEEGKHTGNMADEPETKPSSTSGGLVPRGSSGMILIIYAHPYPHHSHANKRMLEQARTLEGVEIRSLYQLYPDFNIDIAAEQEALSRADLIVWQHPMQWYSIPPLLKLWIDKVFSHGWAYGHGGTALHGKHLLWAVTTGGGESHFEIGAHPGFDVLSQPLQATAIYCGLNWLPPFAMHCTFICDDETLEGQARHYKQRLLEWQEAHHG	2	
full-length recombinant KefC (natural protein, E. coli, UniProt P03819 1-620, looked up, E. coli KefC glutathione-gated K+ efflux system, full length; Blue native PAGE was done without KefF; Also used here as the wild-type KefC of the efflux experiments (plasmids pSM12 and pKefFKefCHis6 in E. coli MJF335); also called whole KefC channels; source: E. coli, overexpressed, bacterial membranes solubilized with 1.5% dodecylmaltoside) MDSHTLIQALIYLGSAALIVPIAVRLGLGSVLGYLIAGCIIGPWGLRLVTDAESILHFAEIGVVLMLFIIGLELDPQRLWKLRAAVFGCGALQMVICGGLLGLFCMLLGLRWQVAELIGMTLALSSTAIAMQAMNERNLMVTQMGRSAFAVLLFQDIAAIPLVAMIPLLATSSASTTMGAFALSALKVAGALVLVVLLGRYVTRPALRFVARSGLREVFSAVALFLVFGFGLLLEEVGLSMAMGAFLAGVLLASSEYRHALESDIEPFKGLLLGLFFIGVGMSIDFGTLLENPLRIVILLLGFLIIKIAMLWLIARPLQVPNKQRRWFAVLLGQGSEFAFVVFGAAQMANVLEPEWAKSLTLAVALSMAATPILLVILNRLEQSSTEEAREADEIDEEQPRVIIAGFGRFGQITGRLLLSSGVKMVVLDHDPDHIETLRKFGMKVFYGDATRMDLLESAGAAKAEVLINAIDDPQTNLQLTEMVKEHFPHLQIIARARDVDHYIRLRQAGVEKPERETFEGALKTGRLALESLGLGPYEARERADVFRRFNIQMVEEMAMVENDTKARAAVYKRTSAMLSEIITEDREHLSLIQRHGWQGTEEGKHTGNMADEPETKPSS		2

Source: publication PMC2920069, “KTN (RCK) Domains Regulate K^+ Channels and Transporters by Controlling the Dimer-Hinge Conformation” (Structure(London, England:1993), 2009)
